Test [1] addresses SARS-CoV-2 Nsp15 (recombinant) (SARS-CoV-2) (UniProt P0DTD1). The experiment in a line: ELISA. (ELISA stands for enzyme-linked immunosorbent assay.)
The target in test [2] is SARS-CoV-2 Nsp7 (recombinant) (SARS-CoV-2) (UniProt P0DTD1). The experiment in a line: ELISA.

The EC50 is the concentration needed to bring the measured effect to its halfway point.

B1: IgG 16684 (anti-Nsp15) (antibody, V domains shown)
VH: EVQLVESGGGLVQPGGSLRLSCAASGFNFSSSSIHWVRQAPGKGLEWVASIYSSYGYTYYADSVKGRFTISADTSKNTAYLQMNSLRAEDTAVYYCARVSYYYPYSWYFYGYYGGLDYWGQGTLVTVSS
VL: DIQMTQSPSSLSASVGDRVTITCRASQSVSSAVAWYQQKPGKAPKLLIYSASSLYSGVPSRFSGSRSGTDFTLTISSLQPEDFATYYCQQSSYSLITFGQGTKVEIK
With B1, the EC50 in test [1] is 19 nM.

B2: IgG 16658 (anti-Nsp7) (antibody, V domains shown)
VH: EVQLVESGGGLVQPGGSLRLSCAASGFNLSYYSIHWVRQAPGKGLEWVASIYPYYSYTYYADSVKGRFTISADTSKNTAYLQMNSLRAEDTAVYYCARVGFDYWGQGTLVTVSS
VL: DIQMTQSPSSLSASVGDRVTITCRASQSVSSAVAWYQQKPGKAPKLLIYSASSLYSGVPSRFSGSRSGTDFTLTISSLQPEDFATYYCQQYAGLITFGQGTKVEIK
With B2, the concentration giving a half-maximal response (EC50) in test [2] stood at 130 nM.

Values taken from publication PMC8993412.
